From patent US20240317834A1, “COMPOSITIONS AND METHODS FOR NEUROLOGICAL DISEASES” (CODA BIOTHERAPEUTICS, INC., priority 2020, published 2024)

Tested on: Lenti-X 293T cells
Assay: YFP fluorescence quenching anion reporter plate reader assay of engineered receptors stimulated with acetylcholine or a non-native ligand
Type: cell-based
Conditions: for percent quench of YFP fluorescence, 10 uM ach: acetylcholine 10 uM; for percent quench of YFP fluorescence, 100 uM ach: acetylcholine 100 uM; for percent quench of YFP fluorescence, 300 uM ach: acetylcholine 300 uM; for percent quench of YFP fluorescence, 500 uM ach: acetylcholine 500 uM; for percent quench of YFP fluorescence, 1 mM ach: acetylcholine 1 mM; for percent quench of YFP fluorescence, 3 mM ach: acetylcholine 3 mM; for percent quench of YFP fluorescence, 10 mM ach: acetylcholine 10 mM
Procedure, shortened: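 Lenti-X 293T cells carrying a YFP anion reporter were transiently transfected with channel DNA and assayed the next day in HEPES-buffered ECS at pH 7.2. Ligand (acetylcholine or non-native ligand) was added in NaI-substituted ECS. Percent quench was the mean of the last 10 s relative to the 15 s pre-addition baseline.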

B1: CODA1047: engineered chimeric LGIC receptor, R101F, Y210V in SEQ ID NO: 33 (protein)
chain: MRCSPGGVWLALAASLLHVSLQGEFQRKLYKELVKNYNPLERPVANDSQPLTVYFSLSLLQIMDVDEKNQVLTTNIWLQMSWTDHYLQWNVSEYPGVKTVFFPDGQIWKPDILLYNSADERFDATFHTNVLVNSSGHCQYLPPGIFKSSCPMDLKNFPMDVQTCKLKFGSWSYGGWSLDLQMQEADISGYIPNGEWDLVGIPGKRSERFVECCKEPYPDVTFTVTMRRRMGYYLIQMYIPSLLIVILSWISFWINMDAAPARVGLGITTVLTMTTQSSGSRASLPKVSYVKAIDIWMAVCLLFVFSALLEYAAVNFVSRQHKELLRFRRKRRHHKSPMLNLFQEDEAGEGRFNFSAYGMGPACLQAKDGISVKGANNSNTTNPPPAPSKSPEEMRKLFIQRAKKIDKISRIGFPMAFLIFNMFYWIIYKIVRREDVHNQ
modifications: synthetic sequence of chimeric LGIC
- YFP fluorescence quenching using CNL001 (1 nM CNL001, first column): −7.82%
- YFP fluorescence quenching using CNL001 (1 nM CNL001, second column): −8.382%
- YFP fluorescence quenching using TC-5619/Bradanicline (1 nM brd): −5.548%
- YFP fluorescence quenching using TC-5619/Bradanicline (3 nM brd): −9.432%
- YFP fluorescence quenching using Varenicline (3 nM var, first column): −3.035
- YFP fluorescence quenching using Varenicline (3 nM var, second column): −0.786
- YFP fluorescence quenching using CNL001 (10 nM CNL001, first column): −5.381%
- YFP fluorescence quenching using CNL001 (10 nM CNL001, second column): −1.431%
- YFP fluorescence quenching using TC-5619/Bradanicline (10 nM brd): −3.068%
- YFP fluorescence quenching using TC-5619/Bradanicline (30 nM brd): 2.368%
- YFP fluorescence quenching using Varenicline (30 nM var, first column): −5.181
- YFP fluorescence quenching using Varenicline (30 nM var, second column): 0.669
- YFP fluorescence quenching using CNL001 (50 nM CNL001, first column): −0.999%
- YFP fluorescence quenching using CNL001 (50 nM CNL001, second column): 3.909%
- YFP fluorescence quenching using ABT-126 (50 nM abt): −14.1%
- YFP fluorescence quenching using CNL001 (100 nM CNL001, first column): −0.823%
- YFP fluorescence quenching using CNL001 (100 nM CNL001, second column): −5.885%
- YFP fluorescence quenching using ABT-126 (100 nM abt): −11.72%
- YFP fluorescence quenching using TC-5619/Bradanicline (100 nM brd): 47.529%
- YFP fluorescence quenching using ABT-126 (300 nM abt): −12.98%
- YFP fluorescence quenching using TC-5619/Bradanicline (300 nM brd): 74.413%
- YFP fluorescence quenching using Varenicline (300 nM var, first column): −2.748
- YFP fluorescence quenching using Varenicline (300 nM var, second column): −6.708
- YFP fluorescence quenching using Varenicline (500 nM var, first column): −9.123
- YFP fluorescence quenching using Varenicline (500 nM var, second column): −9.869
- YFP fluorescence quenching using CNL001 (1 uM CNL001, first column): 1.638%
- YFP fluorescence quenching using CNL001 (1 uM CNL001, second column): 3.483%
- YFP fluorescence quenching using ABT-126 (1 uM abt): −15.09%
- YFP fluorescence quenching using Varenicline (1 uM var, first column): −6.702
- YFP fluorescence quenching using Varenicline (1 uM var, second column): −7.26
- percent quench of YFP fluorescence, 30 nM TC-6683 (TC-6683 30 nM): −24.195%
- percent quench of YFP fluorescence, 300 nM TC-6683 (TC-6683 300 nM): −24.234%
- percent quench of YFP fluorescence, 3 uM TC-6683 (TC-6683 3 uM): −21.291%
- percent quench of YFP fluorescence, 30 uM TC-6683 (TC-6683 30 uM): −16.363%
- percent quench of YFP fluorescence, 100 uM TC-6683 (TC-6683 100 uM): −24.9%
- percent quench of YFP fluorescence, 10 uM ach: −4.26%
- percent quench of YFP fluorescence, 100 uM ach: −13.05%
- percent quench of YFP fluorescence, 300 uM ach: −11.73%
- percent quench of YFP fluorescence, 500 uM ach: −10.75%
- percent quench of YFP fluorescence, 1 mM ach: −8.81%
- percent quench of YFP fluorescence, 3 mM ach: −6.77%
- percent quench of YFP fluorescence, 10 mM ach: −1.03%

B2: CODA1053: engineered chimeric LGIC receptor, R101M, L131A in SEQ ID NO: 33 (protein)
chain: MRCSPGGVWLALAASLLHVSLQGEFQRKLYKELVKNYNPLERPVANDSQPLTVYFSLSLLQIMDVDEKNQVLTTNIWLQMSWTDHYLQWNVSEYPGVKTVMFPDGQIWKPDILLYNSADERFDATFHTNVAVNSSGHCQYLPPGIFKSSCPMDLKNFPMDVQTCKLKFGSWSYGGWSLDLQMQEADISGYIPNGEWDLVGIPGKRSERFYECCKEPYPDVTFTVTMRRRMGYYLIQMYIPSLLIVILSWISFWINMDAAPARVGLGITTVLTMTTQSSGSRASLPKVSYVKAIDIWMAVCLLFVFSALLEYAAVNFVSRQHKELLRFRRKRRHHKSPMLNLFQEDEAGEGRFNFSAYGMGPACLQAKDGISVKGANNSNTTNPPPAPSKSPEEMRKLFIQRAKKIDKISRIGFPMAFLIFNMFYWIIYKIVRREDVHNQ
modifications: synthetic sequence of chimeric LGIC
- YFP fluorescence quenching using CNL001 (1 nM CNL001, first column): −8.554%
- YFP fluorescence quenching using CNL001 (1 nM CNL001, second column): −13.711%
- YFP fluorescence quenching using TC-5619/Bradanicline (1 nM brd): 0.008%
- YFP fluorescence quenching using TC-5619/Bradanicline (3 nM brd): 43.21%
- YFP fluorescence quenching using Varenicline (3 nM var, first column): 74.835
- YFP fluorescence quenching using Varenicline (3 nM var, second column): 76.119
- YFP fluorescence quenching using CNL001 (10 nM CNL001, first column): 39.631%
- YFP fluorescence quenching using CNL001 (10 nM CNL001, second column): 66.809%
- YFP fluorescence quenching using TC-5619/Bradanicline (10 nM brd): 77.672%
- YFP fluorescence quenching using TC-5619/Bradanicline (30 nM brd): 76.277%
- YFP fluorescence quenching using Varenicline (30 nM var, first column): 77.608
- YFP fluorescence quenching using Varenicline (30 nM var, second column): 79.015
- YFP fluorescence quenching using CNL001 (50 nM CNL001, first column): 82.122%
- YFP fluorescence quenching using CNL001 (50 nM CNL001, second column): 82.031%
- YFP fluorescence quenching using ABT-126 (50 nM abt): −27.01%
- YFP fluorescence quenching using CNL001 (100 nM CNL001, first column): 83.312%
- YFP fluorescence quenching using CNL001 (100 nM CNL001, second column): 83.986%
- YFP fluorescence quenching using ABT-126 (100 nM abt): −18.76%
- YFP fluorescence quenching using TC-5619/Bradanicline (100 nM brd): 76.856%
- YFP fluorescence quenching using ABT-126 (300 nM abt): −17.8%
- YFP fluorescence quenching using TC-5619/Bradanicline (300 nM brd): 75.32%
- YFP fluorescence quenching using Varenicline (300 nM var, first column): 80.71
- YFP fluorescence quenching using Varenicline (300 nM var, second column): 79.002
- YFP fluorescence quenching using Varenicline (500 nM var, first column): 78.709
- YFP fluorescence quenching using Varenicline (500 nM var, second column): 78.884
- YFP fluorescence quenching using CNL001 (1 uM CNL001, first column): 84.363%
- YFP fluorescence quenching using CNL001 (1 uM CNL001, second column): 83.877%
- YFP fluorescence quenching using ABT-126 (1 uM abt): −6.55%
- YFP fluorescence quenching using Varenicline (1 uM var, first column): 79.688
- YFP fluorescence quenching using Varenicline (1 uM var, second column): 80
- percent quench of YFP fluorescence, 10 uM ach: −3.98%
- percent quench of YFP fluorescence, 100 uM ach: −11%
- percent quench of YFP fluorescence, 300 uM ach: −7.92%
- percent quench of YFP fluorescence, 500 uM ach: 7.36%
- percent quench of YFP fluorescence, 1 mM ach: 57.28%
- percent quench of YFP fluorescence, 3 mM ach: 60.54%
- percent quench of YFP fluorescence, 10 mM ach: 79.46%

B3: CODA1138: engineered chimeric LGIC receptor, W77F, R101F, L131D in SEQ ID NO: 33 (protein)
chain: MRCSPGGVWLALAASLLHVSLQGEFQRKLYKELVKNYNPLERPVANDSQPLTVYFSLSLLQIMDVDEKNQVLTTNIFLQMSWTDHYLQWNVSEYPGVKTVFFPDGQIWKPDILLYNSADERFDATFHTNVDVNSSGHCQYLPPGIFKSSCPMDLKNFPMDVQTCKLKFGSWSYGGWSLDLQMQEADISGYIPNGEWDLVGIPGKRSERFYECCKEPYPDVTFTVTMRRRMGYYLIQMYIPSLLIVILSWISFWINMDAAPARVGLGITTVLTMTTQSSGSRASLPKVSYVKAIDIWMAVCLLFVFSALLEYAAVNFVSRQHKELLRFRRKRRHHKSPMLNLFQEDEAGEGRFNFSAYGMGPACLQAKDGISVKGANNSNTTNPPPAPSKSPEEMRKLFIQRAKKIDKISRIGFPMAFLIFNMFYWIIYKIVRREDVHNQ
modifications: synthetic sequence of chimeric LGIC
- YFP fluorescence quenching using CNL001 (1 nM CNL001, first column): −6.175%
- YFP fluorescence quenching using CNL001 (1 nM CNL001, second column): 5.89%
- YFP fluorescence quenching using CNL002 (1 nM CNL002): −2.209%
- YFP fluorescence quenching using Varenicline (3 nM var, first column): 3.893
- YFP fluorescence quenching using Varenicline (3 nM var, second column): 1.107
- YFP fluorescence quenching using CNL001 (10 nM CNL001, first column): −2.032%
- YFP fluorescence quenching using CNL001 (10 nM CNL001, second column): 7.601%
- YFP fluorescence quenching using CNL002 (10 nM CNL002): 43.044%
- YFP fluorescence quenching using Varenicline (30 nM var, first column): 0.972
- YFP fluorescence quenching using Varenicline (30 nM var, second column): 0.872
- YFP fluorescence quenching using CNL001 (50 nM CNL001, first column): 9.263%
- YFP fluorescence quenching using CNL001 (50 nM CNL001, second column): 4.423%
- YFP fluorescence quenching using CNL002 (50 nM CNL002): 73.418%
- YFP fluorescence quenching using ABT-126 (50 nM abt): −11.71%
- YFP fluorescence quenching using CNL001 (100 nM CNL001, first column): 24%
- YFP fluorescence quenching using CNL001 (100 nM CNL001, second column): 30.448%
- YFP fluorescence quenching using CNL002 (100 nM CNL002): 81.66%
- YFP fluorescence quenching using ABT-126 (100 nM abt): −5.13%
- YFP fluorescence quenching using ABT-126 (300 nM abt): 15.09%
- YFP fluorescence quenching using Varenicline (300 nM var, first column): 2.282
- YFP fluorescence quenching using Varenicline (300 nM var, second column): −0.288
- YFP fluorescence quenching using Varenicline (500 nM var, first column): 3.637
- YFP fluorescence quenching using Varenicline (500 nM var, second column): −1.804
- YFP fluorescence quenching using CNL001 (1 uM CNL001, first column): 73.823%
- YFP fluorescence quenching using CNL001 (1 uM CNL001, second column): 73.271%
- YFP fluorescence quenching using CNL002 (1 uM CNL002): 81.69%
- YFP fluorescence quenching using ABT-126 (1 uM abt): 56.63%
- YFP fluorescence quenching using Varenicline (1 uM var, first column): −1.84
- YFP fluorescence quenching using Varenicline (1 uM var, second column): 6.36
- YFP fluorescence quenching using ABT-126 (10 uM abt): 75.93%
- percent quench of YFP fluorescence, 10 uM ach: −12.92%
- percent quench of YFP fluorescence, 30 uM ach (acetylcholine 30 uM): −15.36%
- percent quench of YFP fluorescence, 100 uM ach: −19.35%
- percent quench of YFP fluorescence, 300 uM ach: −14.79%
- percent quench of YFP fluorescence, 1 mM ach: 37.5%
- percent quench of YFP fluorescence, 3 mM ach: 61.73%
